Data set [1] concerns the molecule itself. In words: native gel or EMSA; clear native electrophoresis (CN-PAGE), inverse polarity (anode-cathode), 4-10% gradient gels, HEPES/imidazole pH 7.0, 150 V, 4 °C, 5 h, ten micrograms of purified enzyme; no mass markers; dimers to higher aggregates.
Data set [2] concerns the molecule itself. In words: native gel or EMSA; clear native electrophoresis (CN-PAGE), normal polarity (cathode-anode), 4-10% gradient gels, HEPES/imidazole pH 7.0 (40.0/15.3, 88.9/34.0 or 133.2/50 mM in the gel), 150 V, 4 °C, 5 h, ten micrograms of purified enzyme; masses from ferritin and albumin markers, means of the gel conditions; also after 10 mM DTT; dimers to higher aggregates.

Several values for one entry are separate records, joined by “and”; a condition that tells them apart may be missing. Equal entries are not always repeated.

B1: Leishmania mexicana triosephosphate isomerase (enzyme, UniProt P48499 1-251, looked up)
chain: MSAKPQPIAAANWKCNGTTASIEKLVQVFNEHTISHDVQCVVAPTFVHIPLVQAKLRNPKYVISAENAIAKSGAFTGEVSMPILKDIGVHWVILGHSERRTYYGETDEIVAQKVSEACKQGFMVIACIGETLQQREANQTAKVVLSQTSAIAAKLTKDAWNQVVLAYEPVWAIGTGKVATPEQAQEVHLLLRKWVSENIGTDVAAKLRILYGGSVNAANAATLYAKPDINGFLVGGASLKPEFRDIIDATR
notes: triosephosphate isomerase (TIM), Leishmania mexicana; gene cloned into pET-3aHIS; also called LmTIM; Lm; source: E. coli Bl21 (DE3)-p-Lys S, purified (ammonium sulphate, Butyl-650M, Source 15Q)
B1: the binding result in data set [1] was “binds”.

B2: Thermus thermophilus triosephosphate isomerase (enzyme, UniProt Q5SJR1 1-250, looked up)
chain: MRRVLVAGNWKMHKTPSEARVWFAELKRLLPPLQSEAAVLPAFPILPVAKEVLAETQVGYGAQDVSAHKEGAYTGEVSARMLSDLGCRYAIVGHSERRRYHGETDALVAEKAKRLLEEGITPILCVGEPLEVREKGEAVPYTLRQLRGSLEGVEPPGPEALVIAYEPVWAIGTGKNATPEDAEAMHQAIRKALSERYGEAFASRVRILYGGSVNPKNFADLLSMPNVDGGLVGGASLELESFLALLRIAG
notes: gene cloned into pET-3aHIS; also called TtTIM; Tt; source: E. coli Bl21 (DE3)-p-Lys S, purified (ammonium sulphate, Butyl-650M, Source 15Q)
With B2, the “stoichiometry N” value in data set [2] turned out to be 9 dimers in the aggregate.

B3: Trypanosoma cruzi triosephosphate isomerase (enzyme, UniProt P52270 1-251, looked up)
chain: MASKPQPIAAANWKCNGSESLLVPLIETLNAATFDHDVQCVVAPTFLHIPMTKARLTNPKFQIAAQNAITRSGAFTGEVSLQILKDYGISWVVLGHSERRLYYGETNEIVAEKVAQACAAGFHVIVCVGETNEEREAGRTAAVVLTQLAAVAQKLSKEAWSRVVIAYEPVWAIGTGKVATPQQAQEVHELLRRWVRSKLGTDIAAQLRILYGGSVTAKNARTLYQMRDINGFLVGGASLKPEFVEIIEATK
notes: triosephosphate isomerase (TIM), Trypanosoma cruzi; gene cloned into pET-3a; the aggregates are counted in dimers; also called TcTIM; Tc; source: E. coli Bl21 (DE3)-p-Lys S, purified (SP Sepharose fast flow, Butyl toyopearl, ammonium sulphate precipitation)
On to B3, for which the binding result in data set [1] is on record as “binds”.

B4: Taenia solium triosephosphate isomerase (enzyme, UniProt Q9GTX8 1-250, looked up)
chain: MTRKLFVGGNWKMNGSYSHINTFFDTLQKADTDPNADIVIGVPACYLKYAQDKAPKGIKIAAENCYKVGSGAFTGEISTEMIKDCGCEWVILGHSERRHIFGESNELIGEKVKHALDSGLNVIPCIGELLSEREAGKTNDVCFAQMDAIAKNVPSKEAWDKVVIAYEPVWAIGTGKTATPAQAQEVHKVVRDWIRKHVDAGIADKVRILYGGSVTASNAKDLGTQPDVDGFLVGGASLKPDFITIINARR
notes: triosephosphate isomerase (TIM), Taenia solium; gene cloned into pRSET; also called TsTIM; Ts; source: E. coli Bl21 (DE3)-p-Lys S, purified (ammonium sulphate, Butyl-650M, Source 15Q)
On to B4, for which the “stoichiometry N” value in data set [2] is 11 dimers in the aggregate and 8.5 dimers in the aggregate.

The values are drawn from PMC6987189, “Native aggregation is a common feature among triosephosphate isomerases of different species” (Scientific Reports, 2020).
